Source: IntAct's records for PubMed 18715871

B1: Serine/threonine-protein phosphatase 4 catalytic subunit (Homo sapiens), P60510 (parent)
chain: MAEISDLDRQIEQLRRCELIKESEVKALCAKAREILVEESNVQRVDSPVTVCGDIHGQFYDLKELFRVGGDVPETNYLFMGDFVDRGFYSVETFLLLLALKVRYPDRITLIRGNHESRQITQVYGFYDECLRKYGSVTVWRYCTEIFDYLSLSAIIDGKIFCVHGGLSPSIQTLDQIRTIDRKQEVPHDGPMCDLLWSDPEDTTGWGVSPRGAGYLFGSDVVAQFNAANDIDMICRAHQLVMEGYKWHFNETVLTVWSAPNYCYRCGNVAAILELDEHLQKDFIIFEAAPQETRGIPSKKPVADYFL
partner: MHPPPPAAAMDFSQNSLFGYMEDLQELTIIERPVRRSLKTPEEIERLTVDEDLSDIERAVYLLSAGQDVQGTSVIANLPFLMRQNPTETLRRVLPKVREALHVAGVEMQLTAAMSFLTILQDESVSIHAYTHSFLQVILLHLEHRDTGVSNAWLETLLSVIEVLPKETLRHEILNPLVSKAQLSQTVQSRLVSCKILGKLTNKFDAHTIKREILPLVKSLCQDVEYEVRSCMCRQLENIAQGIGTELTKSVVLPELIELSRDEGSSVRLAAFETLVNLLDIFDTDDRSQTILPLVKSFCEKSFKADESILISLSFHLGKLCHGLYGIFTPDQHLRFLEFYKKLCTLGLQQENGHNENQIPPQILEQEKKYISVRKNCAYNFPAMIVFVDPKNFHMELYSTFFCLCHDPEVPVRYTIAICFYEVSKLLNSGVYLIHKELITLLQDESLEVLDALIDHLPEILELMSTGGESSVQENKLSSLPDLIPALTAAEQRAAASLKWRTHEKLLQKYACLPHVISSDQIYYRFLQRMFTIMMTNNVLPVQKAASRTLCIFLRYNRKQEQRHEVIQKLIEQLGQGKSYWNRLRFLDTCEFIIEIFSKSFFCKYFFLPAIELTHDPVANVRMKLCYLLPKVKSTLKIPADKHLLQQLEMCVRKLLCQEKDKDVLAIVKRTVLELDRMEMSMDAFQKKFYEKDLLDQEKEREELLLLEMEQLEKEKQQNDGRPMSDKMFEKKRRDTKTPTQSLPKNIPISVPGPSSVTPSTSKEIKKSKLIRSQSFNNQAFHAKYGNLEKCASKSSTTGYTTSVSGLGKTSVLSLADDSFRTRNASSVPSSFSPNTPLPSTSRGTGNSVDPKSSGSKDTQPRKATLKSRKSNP
B2: Serine/threonine-protein phosphatase 4 regulatory subunit 4 (Homo sapiens), Q6NUP7 (parent)
chain: B1 partner
partner: B1 chain
B3: Serine/threonine-protein phosphatase 4 catalytic subunit (Homo sapiens), P60510 (parent)
chain: B1 chain
partner: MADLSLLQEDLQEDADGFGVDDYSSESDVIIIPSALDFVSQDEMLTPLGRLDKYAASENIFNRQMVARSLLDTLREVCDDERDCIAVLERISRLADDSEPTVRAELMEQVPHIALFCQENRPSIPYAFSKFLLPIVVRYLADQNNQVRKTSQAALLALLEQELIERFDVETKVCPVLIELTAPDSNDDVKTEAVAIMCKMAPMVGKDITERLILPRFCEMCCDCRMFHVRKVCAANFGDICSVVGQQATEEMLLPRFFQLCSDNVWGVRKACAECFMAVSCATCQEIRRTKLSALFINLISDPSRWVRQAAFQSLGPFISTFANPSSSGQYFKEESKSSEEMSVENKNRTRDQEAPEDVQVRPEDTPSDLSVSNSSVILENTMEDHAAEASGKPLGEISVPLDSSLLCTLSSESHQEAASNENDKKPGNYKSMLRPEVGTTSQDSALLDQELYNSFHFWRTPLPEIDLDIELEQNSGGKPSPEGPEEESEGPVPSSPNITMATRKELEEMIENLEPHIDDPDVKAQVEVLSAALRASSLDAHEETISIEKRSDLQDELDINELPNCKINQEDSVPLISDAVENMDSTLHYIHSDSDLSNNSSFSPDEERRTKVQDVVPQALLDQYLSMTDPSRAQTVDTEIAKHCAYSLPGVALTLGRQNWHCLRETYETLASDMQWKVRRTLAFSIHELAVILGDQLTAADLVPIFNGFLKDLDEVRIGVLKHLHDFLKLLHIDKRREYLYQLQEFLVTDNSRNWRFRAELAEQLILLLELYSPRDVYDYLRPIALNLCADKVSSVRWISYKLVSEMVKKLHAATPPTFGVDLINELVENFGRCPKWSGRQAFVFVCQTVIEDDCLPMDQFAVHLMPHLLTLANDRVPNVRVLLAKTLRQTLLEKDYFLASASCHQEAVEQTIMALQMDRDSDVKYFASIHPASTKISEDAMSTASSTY

Variants of: B1
Conditions: with pp4r4_human PPP4R4, Q6NUP7

effect of a mutation on the interaction | Variant
decreasing interaction | MAEISDLDRQIEQLRRCELIKESEVKALCAKAREILVEKSNVQRVDSPVTVCGDIHGQFYDLKELFRVGGDVPETNYLFMGDFVDRGFYSVETFLLLLALKVRYPDRITLIRGNHESRQITQVYGFYDECLRKYGSVTVWRYCTEIFDYLSLSAIIDGKIFCVHGGLSPSIQTLDQIRTIDRKQEVPHDGPMCDLLWSDPEDTTGWGVSPRGAGYLFGSDVVAQFNAANDIDMICRAHQLVMEGYKWHFNETVLTVWSAPNYCYRCGNVAAILELDEHLQKDFIIFEAAPQETRGIPSKKPVADYFL [E39K]

Variants of: B2
Conditions: with pp4c_human PPP4C

effect of a mutation on the interaction | Variant
disrupting interaction | R501D
disrupting interaction | V618A
disrupting interaction | V618D

Variants of: B3
Conditions: with pp4r1_human PPP4R1, Q8TF05

effect of a mutation on the interaction | Variant
disrupting interaction | MAEISDLDRQIEQLRRCELIKESEVKALCAKAREILVEESNVQRVDSPVTVCGDIHGQFYDLKELFRVGGDVPETNYLFMGDFVDRGFYSVETFLLLLALKVRYPDEITLIRGNHESRQITQVYGFYDECLRKYGSVTVWRYCTEIFDYLSLSAIIDGKIFCVHGGLSPSIQTLDQIRTIDRKQEVPHDGPMCDLLWSDPEDTTGWGVSPRGAGYLFGSDVVAQFNAANDIDMICRAHQLVMEGYKWHFNETVLTVWSAPNYCYRCGNVAAILELDEHLQKDFIIFEAAPQETRGIPSKKPVADYFL [R107E]
disrupting interaction | MAEISDLDRQIEQLRRCELIKESEVKALCAKAREILVEESNVQRVDSPVTVCGDIHGQFYDLKELFRVGGDVPETDYLFMGDFVDRGFYSVETFLLLLALKVRYPDRITLIRGNHESRQITQVYGFYDECLRKYGSVTVWRYCTEIFDYLSLSAIIDGKIFCVHGGLSPSIQTLDQIRTIDRKQEVPHDGPMCDLLWSDPEDTTGWGVSPRGAGYLFGSDVVAQFNAANDIDMICRAHQLVMEGYKWHFNETVLTVWSAPNYCYRCGNVAAILELDEHLQKDFIIFEAAPQETRGIPSKKPVADYFL [N76D]
decreasing interaction | MAEISDLDRQIEQLRRCELIKESEVKALCAKAREILVEESNVQRVDSPVTVCGDIHGQFYDLKELFRVGGDVPETNYLFMGDFVDRGFYSVETFLLLLALKVRYPDRITLIRGNHESRQITQVYGFYDECLRKYGSVTVWRYCTEIFDYLSLSAIIDGKIFCVHGGLSPSIQTLDQIRTIDRKQEVPHDGPMCDLLWSDPEDTTGWGVSPRGAGYLFGSDVVAQFNAANDIDMICRAHQLVMEGYKWHFNETVLTVWSAPNYCYRCGNVAAILELDKHLQKDFIIFEAAPQETRGIPSKKPVADYFL [E277K]
disrupting interaction | MAEISDLDRQIEQLRRCELIKESEVKALCAKAREILVEESNVQRVDSPVTVCGDIHGQFYDLKKLFRVGGDVPETNYLFMGDFVDRGFYSVETFLLLLALKVRYPDRITLIRGNHESRQITQVYGFYDECLRKYGSVTVWRYCTEIFDYLSLSAIIDGKIFCVHGGLSPSIQTLDQIRTIDRKQEVPHDGPMCDLLWSDPEDTTGWGVSPRGAGYLFGSDVVAQFNAANDIDMICRAHQLVMEGYKWHFNETVLTVWSAPNYCYRCGNVAAILELDEHLQKDFIIFEAAPQETRGIPSKKPVADYFL [E64K]
disrupting interaction | MAEISDLDRQIEQLRRCELIKESEVKALCAKAREILVEKSNVQRVDSPVTVCGDIHGQFYDLKELFRVGGDVPETNYLFMGDFVDRGFYSVETFLLLLALKVRYPDRITLIRGNHESRQITQVYGFYDECLRKYGSVTVWRYCTEIFDYLSLSAIIDGKIFCVHGGLSPSIQTLDQIRTIDRKQEVPHDGPMCDLLWSDPEDTTGWGVSPRGAGYLFGSDVVAQFNAANDIDMICRAHQLVMEGYKWHFNETVLTVWSAPNYCYRCGNVAAILELDEHLQKDFIIFEAAPQETRGIPSKKPVADYFL [E39K]
